# Source: patent US20230242658A1 (published 2023)
# Experiments:
# [1] = target: 4-1BB on HEK293/4-1BB/NF-kb reporter cells; assay: cell-based or functional assay
# [2] = target: T1, human 4-1BB on CHO-K1 cells (human, UniProt Q07011 24-255); assay: FACS, CHO-K1/hu 4-1BB cells
# T1 construct: whole, on cells; also called CHO-K1/hu 4-1BB; CHO-K1/hu4-1BB
# [3] = target: T2, human PD-L1 on CHO-K1 cells (human, UniProt Q9NZQ7 19-290); assay: FACS, CHO-K1/hPD-L1 cells
# T2 construct: whole, on cells; also called CHO-K1/hPDL1; CHO-K1/hPD-L1
# T2 sequence (Q9NZQ7 19-290): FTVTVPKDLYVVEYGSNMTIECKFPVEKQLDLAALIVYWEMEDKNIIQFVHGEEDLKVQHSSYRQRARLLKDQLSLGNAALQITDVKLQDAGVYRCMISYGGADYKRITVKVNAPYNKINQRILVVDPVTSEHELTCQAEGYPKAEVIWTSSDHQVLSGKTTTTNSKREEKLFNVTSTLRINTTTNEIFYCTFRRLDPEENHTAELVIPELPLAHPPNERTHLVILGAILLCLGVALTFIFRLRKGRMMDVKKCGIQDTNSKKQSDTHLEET
# [4] = target: T1, human 4-1BB on CHO-K1 cells; assay: FACS, CHO-K1/hu4-1BB cells
# Method: The binding abilities of the antibody molecules to a CHO-K1 cell strain highly expressing human 4-1BB (CHO-K1/hu4-1BB, GenScript, M00538) and a CHO-K1 cell strain highly expressing cynomolgus monkey 4-1BB (CHO-K1/cyno4-1BB, GenScript, M00569) were determined by flow cytometry FACS. Specifically, the cells were digested and resuspended in a complete medium, and the cell density was adjusted to 2×10⁶ cells/mL. Then, the cells were seeded in a 96-well V-bottom plate (Corning, #3894) at 100 μL/well (2×10⁵ cells/well) and centrifuged at 4° C. for 5 min, and the supernatant was discarded. Then, the serially diluted antibody molecules were added to the 96-well plate at 100 μL/well, and the mixtures were well mixed. The antibody molecules might serially diluted 3-fold from the highest final concentration 200 nM to obtain a total of 12 concentrations. hIgG1 iso (CrownBio, #C0001) was used as an isotype control. The cells were incubated at 4° C. for 1 h away from light. Then, the cells in each well were rinsed twice with 100 μL of pre-cooled FACS buffer (PBS buffer containing 0.5% BSA) and centrifuged at 500 g at 4° C. for 5 min, and then the supernatant was discarded. […] Then, the cells in each well were then rinsed twice with 200 μL of pre-cooled FACS buffer and centrifuged at 500 g at 4° C. for 5 min, and then the supernatant was discarded. Finally, a pre-cooled FACS buffer was added at 200 μL/well to resuspend the cells. The fluorescence signal values were read using a BD FACS CANTOII flow cytometer.
# T1 sequence (Q07011 24-255): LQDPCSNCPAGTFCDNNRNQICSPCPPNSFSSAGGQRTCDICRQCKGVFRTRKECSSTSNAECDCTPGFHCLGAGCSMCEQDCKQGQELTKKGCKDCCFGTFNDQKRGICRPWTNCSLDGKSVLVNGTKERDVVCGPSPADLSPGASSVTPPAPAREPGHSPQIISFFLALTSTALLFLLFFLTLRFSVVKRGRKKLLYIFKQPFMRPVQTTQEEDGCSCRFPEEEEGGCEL
"EC50, NF-kb luciferase reporter, CHO-K1/CD32b crosslinking [1] [nM]",binding result [2],binding result [3],binding result [4],Binder
< 0.8,binds,,,"PR007286 (antibody, human IgG1, V domains shown, HCAb, heavy chain only, human IgG1 Fc; also called R1016P142D03) VH: EVQLVESGGGLVKPGGSLRLSCAASGFTFSDYYMSWIRQAPGKGLEWVSYISSSGSTIYYADSVKGRFTISRDNAKNSLYLQMNSLRAEDTAVYYCARVKPVAGTWDWFDPWGQGTPVTVSS"
,,binds,binds,"PR007143 (bispecific antibody, human IgG1, kappa, PD-L1x4-1BB IgG-VH: PR000265 + VH of PR007296 at heavy-chain C-terminus) light: DIQMTQSPSTLSASVGDRVTVTCRASQSIYIWLAWYQQKPGKAPNLLIYKASSLETGVPSRFSGSGSGTEFTLTISSLQPDDFATYYCQQYYGSSRTFGQGTKVEIKRTVAAPSVFIFPPSDEQLKSGTASVVCLLNNFYPREAKVQWKVDNALQSGNSQESVTEQDSKDSTYSLSSTLTLSKADYEKHKVYACEVTHQGLSSPVTKSFNRGEC heavy: EVQLVESGGGLVQPGGSLRLSCAASGFTFSSYWMSWVRQAPGKGLEWVANIKQEGSEKYYVDSVKGRFTISRDNAKNSLYLQMNSLRAEDTAVYYCARDRAVAGAFDIWGQGTMVTVSSASTKGPSVFPLAPSSKSTSGGTAALGCLVKDYFPEPVTVSWNSGALTSGVHTFPAVLQSSGLYSLSSVVTVPSSSLGTQTYICNVNHKPSNTKVDKKVEPKSCDKTHTCPPCPAPEAAGAPSVFLFPPKPKDTLMISRTPEVTCVVVDVSHEDPEVKFNWYVDGVEVHNAKTKPREEQYNSTYRVVSVLTVLHQDWLNGKEYKCKVSNKALPAPIEKTISKAKGQPREPQVYTLPPSREEMTKNQVSLTCLVKGFYPSDIAVEWESNGQPENNYKTTPPVLDSDGSFFLYSKLTVDKSRWQQGNVFSCSVMHEALHNHYTQKSLSLSPGGGSGGSEVQLVESGGGLVKPGGSLRLSCVASGFTFSDYYMSWFRQAPGKGLEWVSYISGSGTTIDYADSVKGRFTISRDNAKNSLYLQMNSLRAEDTAVYYCAREREAVAGTLDFDNWGQGTPVTVSS"
,,binds,binds,"PR007142 (bispecific antibody, human IgG1, kappa, PD-L1x4-1BB IgG-VH: PR000265 + VH of PR007295 at heavy-chain C-terminus) light: DIQMTQSPSTLSASVGDRVTVTCRASQSIYIWLAWYQQKPGKAPNLLIYKASSLETGVPSRFSGSGSGTEFTLTISSLQPDDFATYYCQQYYGSSRTFGQGTKVEIKRTVAAPSVFIFPPSDEQLKSGTASVVCLLNNFYPREAKVQWKVDNALQSGNSQESVTEQDSKDSTYSLSSTLTLSKADYEKHKVYACEVTHQGLSSPVTKSFNRGEC heavy: EVQLVESGGGLVQPGGSLRLSCAASGFTFSSYWMSWVRQAPGKGLEWVANIKQEGSEKYYVDSVKGRFTISRDNAKNSLYLQMNSLRAEDTAVYYCARDRAVAGAFDIWGQGTMVTVSSASTKGPSVFPLAPSSKSTSGGTAALGCLVKDYFPEPVTVSWNSGALTSGVHTFPAVLQSSGLYSLSSVVTVPSSSLGTQTYICNVNHKPSNTKVDKKVEPKSCDKTHTCPPCPAPEAAGAPSVFLFPPKPKDTLMISRTPEVTCVVVDVSHEDPEVKFNWYVDGVEVHNAKTKPREEQYNSTYRVVSVLTVLHQDWLNGKEYKCKVSNKALPAPIEKTISKAKGQPREPQVYTLPPSREEMTKNQVSLTCLVKGFYPSDIAVEWESNGQPENNYKTTPPVLDSDGSFFLYSKLTVDKSRWQQGNVFSCSVMHEALHNHYTQKSLSLSPGGGSGGSEVQLVESGGGLVKPGGSLRLSCAASGFTFSDYYMSWIRQAPGKGLEWVSYISNNGSTIYYADSVKGRFTISRDNAKNSLYLQMNSLRAEDTAVYYCARVRPGGSGNYWDWFDPWGQGTMVTVSS"
,,binds,binds,"PR007138 (bispecific antibody, human IgG1, kappa, PD-L1x4-1BB IgG-VH: PR000265 + VH of PR007291 at heavy-chain C-terminus) light: DIQMTQSPSTLSASVGDRVTVTCRASQSIYIWLAWYQQKPGKAPNLLIYKASSLETGVPSRFSGSGSGTEFTLTISSLQPDDFATYYCQQYYGSSRTFGQGTKVEIKRTVAAPSVFIFPPSDEQLKSGTASVVCLLNNFYPREAKVQWKVDNALQSGNSQESVTEQDSKDSTYSLSSTLTLSKADYEKHKVYACEVTHQGLSSPVTKSFNRGEC heavy: EVQLVESGGGLVQPGGSLRLSCAASGFTFSSYWMSWVRQAPGKGLEWVANIKQEGSEKYYVDSVKGRFTISRDNAKNSLYLQMNSLRAEDTAVYYCARDRAVAGAFDIWGQGTMVTVSSASTKGPSVFPLAPSSKSTSGGTAALGCLVKDYFPEPVTVSWNSGALTSGVHTFPAVLQSSGLYSLSSVVTVPSSSLGTQTYICNVNHKPSNTKVDKKVEPKSCDKTHTCPPCPAPEAAGAPSVFLFPPKPKDTLMISRTPEVTCVVVDVSHEDPEVKFNWYVDGVEVHNAKTKPREEQYNSTYRVVSVLTVLHQDWLNGKEYKCKVSNKALPAPIEKTISKAKGQPREPQVYTLPPSREEMTKNQVSLTCLVKGFYPSDIAVEWESNGQPENNYKTTPPVLDSDGSFFLYSKLTVDKSRWQQGNVFSCSVMHEALHNHYTQKSLSLSPGGGSGGSEVQLVESGGGLVKPGGSLRLSCVTSGFTFSDYYMNWIRQAPGKGQEWVSYISGNGSTIYYADSVKGRFTISRDNAKNSLYLQMNSLRAEDTAVYYCARVRPGGSGNYWDWFDPWGQGTPVTVSS"
,,binds,binds,"PR007146 (bispecific antibody, human IgG1, kappa, PD-L1x4-1BB IgG-VH: PR000265 + VH of PR007298 at heavy-chain C-terminus) light: DIQMTQSPSTLSASVGDRVTVTCRASQSIYIWLAWYQQKPGKAPNLLIYKASSLETGVPSRFSGSGSGTEFTLTISSLQPDDFATYYCQQYYGSSRTFGQGTKVEIKRTVAAPSVFIFPPSDEQLKSGTASVVCLLNNFYPREAKVQWKVDNALQSGNSQESVTEQDSKDSTYSLSSTLTLSKADYEKHKVYACEVTHQGLSSPVTKSFNRGEC heavy: EVQLVESGGGLVQPGGSLRLSCAASGFTFSSYWMSWVRQAPGKGLEWVANIKQEGSEKYYVDSVKGRFTISRDNAKNSLYLQMNSLRAEDTAVYYCARDRAVAGAFDIWGQGTMVTVSSASTKGPSVFPLAPSSKSTSGGTAALGCLVKDYFPEPVTVSWNSGALTSGVHTFPAVLQSSGLYSLSSVVTVPSSSLGTQTYICNVNHKPSNTKVDKKVEPKSCDKTHTCPPCPAPEAAGAPSVFLFPPKPKDTLMISRTPEVTCVVVDVSHEDPEVKFNWYVDGVEVHNAKTKPREEQYNSTYRVVSVLTVLHQDWLNGKEYKCKVSNKALPAPIEKTISKAKGQPREPQVYTLPPSREEMTKNQVSLTCLVKGFYPSDIAVEWESNGQPENNYKTTPPVLDSDGSFFLYSKLTVDKSRWQQGNVFSCSVMHEALHNHYTQKSLSLSPGGGSGGSEVQLVESGGGLVKPGGSLRLSCAASGFTFSDYYMSWVRQAPGKGLEWVSYISSSGSTIDYADSVKGRFTISRDNAKNSLFLEMNSLRAEDTAVYYCAREREEVAGTLDFDNWGQGTLVTVSS"
,,binds,binds,"PR007145 (bispecific antibody, human IgG1, kappa, PD-L1x4-1BB IgG-VH: PR000265 + VH of PR007297 at heavy-chain C-terminus) light: DIQMTQSPSTLSASVGDRVTVTCRASQSIYIWLAWYQQKPGKAPNLLIYKASSLETGVPSRFSGSGSGTEFTLTISSLQPDDFATYYCQQYYGSSRTFGQGTKVEIKRTVAAPSVFIFPPSDEQLKSGTASVVCLLNNFYPREAKVQWKVDNALQSGNSQESVTEQDSKDSTYSLSSTLTLSKADYEKHKVYACEVTHQGLSSPVTKSFNRGEC heavy: EVQLVESGGGLVQPGGSLRLSCAASGFTFSSYWMSWVRQAPGKGLEWVANIKQEGSEKYYVDSVKGRFTISRDNAKNSLYLQMNSLRAEDTAVYYCARDRAVAGAFDIWGQGTMVTVSSASTKGPSVFPLAPSSKSTSGGTAALGCLVKDYFPEPVTVSWNSGALTSGVHTFPAVLQSSGLYSLSSVVTVPSSSLGTQTYICNVNHKPSNTKVDKKVEPKSCDKTHTCPPCPAPEAAGAPSVFLFPPKPKDTLMISRTPEVTCVVVDVSHEDPEVKFNWYVDGVEVHNAKTKPREEQYNSTYRVVSVLTVLHQDWLNGKEYKCKVSNKALPAPIEKTISKAKGQPREPQVYTLPPSREEMTKNQVSLTCLVKGFYPSDIAVEWESNGQPENNYKTTPPVLDSDGSFFLYSKLTVDKSRWQQGNVFSCSVMHEALHNHYTQKSLSLSPGGGSGGSEVQLVESGGGLVKPGGSLRLSCAASGFTFSDYYMSWIRQAPGKGLEWVSYISRSGSTIYYADSVKGRFTISRDNAKNSLYLQMNSLRAEDTAVYYCARVRPGGSGNYWDWFDPWGQGTLVTVSS"
,,binds,binds,"PR007149 (bispecific antibody, human IgG1, kappa, PD-L1x4-1BB IgG-VH: PR000265 + VH of PR007300 at heavy-chain C-terminus) light: DIQMTQSPSTLSASVGDRVTVTCRASQSIYIWLAWYQQKPGKAPNLLIYKASSLETGVPSRFSGSGSGTEFTLTISSLQPDDFATYYCQQYYGSSRTFGQGTKVEIKRTVAAPSVFIFPPSDEQLKSGTASVVCLLNNFYPREAKVQWKVDNALQSGNSQESVTEQDSKDSTYSLSSTLTLSKADYEKHKVYACEVTHQGLSSPVTKSFNRGEC heavy: EVQLVESGGGLVQPGGSLRLSCAASGFTFSSYWMSWVRQAPGKGLEWVANIKQEGSEKYYVDSVKGRFTISRDNAKNSLYLQMNSLRAEDTAVYYCARDRAVAGAFDIWGQGTMVTVSSASTKGPSVFPLAPSSKSTSGGTAALGCLVKDYFPEPVTVSWNSGALTSGVHTFPAVLQSSGLYSLSSVVTVPSSSLGTQTYICNVNHKPSNTKVDKKVEPKSCDKTHTCPPCPAPEAAGAPSVFLFPPKPKDTLMISRTPEVTCVVVDVSHEDPEVKFNWYVDGVEVHNAKTKPREEQYNSTYRVVSVLTVLHQDWLNGKEYKCKVSNKALPAPIEKTISKAKGQPREPQVYTLPPSREEMTKNQVSLTCLVKGFYPSDIAVEWESNGQPENNYKTTPPVLDSDGSFFLYSKLTVDKSRWQQGNVFSCSVMHEALHNHYTQKSLSLSPGGGSGGSEVQLVESGGGLVKPGGSLRLSCTTSGFTFSDYYMNWVRQAPGKGLEWVSYISNNGSTIYYADSVKGRFTISRDNAKNSLYLQMNSLRAEDTAVYYCARVRPGGSGNYWDWFDPWGQGTPVTVSS"
< 0.8,binds,,,"PR007295 (antibody, human IgG1, V domains shown, HCAb, heavy chain only, human IgG1 Fc; also called R1016P147A09) VH: EVQLVESGGGLVKPGGSLRLSCAASGFTFSDYYMSWIRQAPGKGLEWVSYISNNGSTIYYADSVKGRFTISRDNAKNSLYLQMNSLRAEDTAVYYCARVRPGGSGNYWDWFDPWGQGTMVTVSS"
